# In patent publication US20170253656A1 (SUTRO BIOPHARMA, published 2017):
# T1: hu-CD74 antigen (R&D SYSTEMS catalog #3590-CD-050) (human, UniProt P04233-2 73-232, limits assumed)
# T1 construct: Bought antigen; also called rhCD74; human CD74
# T1 sequence (looked up): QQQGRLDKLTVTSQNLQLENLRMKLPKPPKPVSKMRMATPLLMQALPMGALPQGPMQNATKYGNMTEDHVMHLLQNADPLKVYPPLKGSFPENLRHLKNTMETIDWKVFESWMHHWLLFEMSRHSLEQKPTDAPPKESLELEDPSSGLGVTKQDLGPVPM
# Molecular target: T1, hu-CD74 antigen (R&D SYSTEMS catalog …)
# Test: SPR (Biacore T200), captured on anti-human Fc, rhCD74 analyte
# Protocol: Kinetic binding experiments were performed at 25° C. using 1×HBS-EP+buffer. Kinetic data was collected by injecting test and control antibodies at concentrations of 10, 5 and 2.5 μg/mL for 12 s at a flow rate of 10 μl/min on flow cells 2, 3 and 4 respectively, followed by a buffer wash for 30 s at the same flow rate. Kinetic characterization of antibody samples was carried out with 8 concentrations of a 1:2 dilution series of rhCD74 antigen (R&D Systems) and 2 injections of 0 nM antigen (buffer only). […] Between each ligand capture and analyte binding cycle, regeneration was carried out using 2 injections of 3M MgCl₂ for 30 seconds at 30 μL/min, followed by a 30 second buffer wash step.
Binder,Kd [nM],koff [s⁻¹],kon [M⁻¹ s⁻¹]
"1251-D02 heavy chain paired with VL SEQ ID NO: 272 (antibody, V domains shown) VH: QVQLVESGGGVVQPGRSLRLSCAASGFSFASHGMHWVRQAPDKGLEWVAVIWDDGSDRYYADSVKGRFTISRDNSKNTLYLQMNSLRAEDTAVYYCARGGTRVLGAIHGTDVWGQGTTVTVSS VL: DIQMTQSPSSLSASVGDRVTITCRASQGISSWLAWYQQKPEKAPKSLIYAASSLQSGVPSRFSGSGSGTDFTLTISSLQPEDFATYYCQQYNSYPLTFGGGTKVEIK",0.189,0.000167,885000
"1251-D06 heavy chain paired with VL SEQ ID NO: 272 (antibody, V domains shown) VH: QVQLVESGGGVVQPGRSLRLSCAASGFSFGSYGMHWVRQAPDKGLEWVAVVWYDGSKTIYADSVKGRFTISRDNSKNTLYLQMNSLRAEDTAVYYCARGGTLVRGAVYGLDVWGQGTTVTVSS VL: DIQMTQSPSSLSASVGDRVTITCRASQGISSWLAWYQQKPEKAPKSLIYAASSLQSGVPSRFSGSGSGTDFTLTISSLQPEDFATYYCQQYNSYPLTFGGGTKVEIK",0.0752,0.000173,2.3e+06
"1251-D09 heavy chain paired with VL SEQ ID NO: 272 (antibody, V domains shown) VH: QVQLVESGGGVVQPGRSLRLSCAASGFSFSSYGMHWVRQAPDKGLEWVAVIWYDASIRKYAGSVKGRFTISRDNSKNTLYLQMNSLRAEDTAVYYCARGGTVERGAIYGTDVWGQGTTVTVSS VL: DIQMTQSPSSLSASVGDRVTITCRASQGISSWLAWYQQKPEKAPKSLIYAASSLQSGVPSRFSGSGSGTDFTLTISSLQPEDFATYYCQQYNSYPLTFGGGTKVEIK",0.139,0.000137,989000
"1251-F07 heavy chain paired with VL SEQ ID NO: 272 (antibody, V domains shown) VH: QVQLVESGGGVVQPGRSLRLSCAASGFTFSSHGMHWVRQAPDKGLEWVAVIWDDGSNEVYADSVKGRFTISRDNSKNTLYLQMNSLRAEDTAVYYCARGGTRIRGLRYGTDVWGQGTTVTVSS VL: DIQMTQSPSSLSASVGDRVTITCRASQGISSWLAWYQQKPEKAPKSLIYAASSLQSGVPSRFSGSGSGTDFTLTISSLQPEDFATYYCQQYNSYPLTFGGGTKVEIK",0.185,0.000125,678000
"1251-G02 heavy chain paired with VL SEQ ID NO: 272 (antibody, V domains shown) VH: QVQLVESGGGVVQPGRSLRLSCAASGFTFSSYGMHWVRQAPDKGLEWVAVIWHDGSKDYYADSVKGRFTISRDNSKNTLYLQMNSLRAEDTAVYYCARGGQLDHGAIYGLDVWGQGTTVTVSS VL: DIQMTQSPSSLSASVGDRVTITCRASQGISSWLAWYQQKPEKAPKSLIYAASSLQSGVPSRFSGSGSGTDFTLTISSLQPEDFATYYCQQYNSYPLTFGGGTKVEIK",0.651,0.00084,1.29e+06
"1251-A02 heavy chain paired with VL SEQ ID NO: 272 (antibody, V domains shown, Selected from a Fab library; VH3-33 / Vk1-12) VH: QVQLVESGGGVVQPGRSLRLSCAASGFAFSDHGMHWVRQAPDKGLEWVAVIWYDGSHKIYADSVKGRFTISRDNSKNTLYLQMNSLRAEDTAVYYCARGGSLAGGAVYGTDVWGQGTTVTVSS VL: DIQMTQSPSSLSASVGDRVTITCRASQGISSWLAWYQQKPEKAPKSLIYAASSLQSGVPSRFSGSGSGTDFTLTISSLQPEDFATYYCQQYNSYPLTFGGGTKVEIK",0.2,0.000302,1.51e+06
"1251-A03 heavy chain paired with VL SEQ ID NO: 272 (antibody, V domains shown) VH: QVQLVESGGGVVQPGRSLRLSCAASGFAFSDHGMHWVRQAPDKGLEWVAVIWYDGSHKIYADSVKGRFTISRDNSKNTLYLQMNSLRAEDTAVYYCARGGSLAGGAVYGTDVWGQGTTVTVSS VL: DIQMTQSPSSLSASVGDRVTITCRASQGISSWLAWYQQKPEKAPKSLIYAASSLQSGVPSRFSGSGSGTDFTLTISSLQPEDFATYYCQQYNSYPLTFGGGTKVEIK",0.184,0.000305,1.65e+06
"1251-C03 heavy chain paired with VL SEQ ID NO: 272 (antibody, V domains shown) VH: QVQLVESGGGVVQPGRSLRLSCAASGFNFSSYGMHWVRQAPDKGLEWVAVIWYDGSIKNYADSVKGRFTISRDNSKNTLYLQMNSLRAEDTAVYYCARGGALMRGEFSGHDVWGQGTTVTVSS VL: DIQMTQSPSSLSASVGDRVTITCRASQGISSWLAWYQQKPEKAPKSLIYAASSLQSGVPSRFSGSGSGTDFTLTISSLQPEDFATYYCQQYNSYPLTFGGGTKVEIK",1.63,0.00118,722000
"1251-E06 heavy chain paired with VL SEQ ID NO: 272 (antibody, V domains shown) VH: QVQLVESGGGVVQPGRSLRLSCAASGFTFDSYGMHWVRQAPDKGLEWVAVIWYDGSNKVYADSVKGRFTISRDNSKNTLYLQMNSLRAEDTAVYYCARGGMVGQGAMFGLDVWGQGTTVTVSS VL: DIQMTQSPSSLSASVGDRVTITCRASQGISSWLAWYQQKPEKAPKSLIYAASSLQSGVPSRFSGSGSGTDFTLTISSLQPEDFATYYCQQYNSYPLTFGGGTKVEIK",0.376,0.000426,1.13e+06
"1251-F06 heavy chain paired with VL SEQ ID NO: 272 (antibody, V domains shown) VH: QVQLVESGGGVVQPGRSLRLSCAASGFTFSSFGMHWVRQAPDKGLEWVAVIWYDGSNEYYADSVKGRFTISRDNSKNTLYLQMNSLRAEDTAVYYCARGGSLVTRGVYGLDVWGQGTTVTVSS VL: DIQMTQSPSSLSASVGDRVTITCRASQGISSWLAWYQQKPEKAPKSLIYAASSLQSGVPSRFSGSGSGTDFTLTISSLQPEDFATYYCQQYNSYPLTFGGGTKVEIK",0.363,0.000779,2.15e+06
1275-C10 light chain paired with HC 1251-A06 (SEQ ID NO: 310) (antibody) heavy: not shown VL: DIQMTQSPSSLSASVGDRVTITCRASQGVSSWLAWYQQKPEKAPKSLIYSARYLQSGVPSRFSGSGSGTDFTLTISSLQPEDFATYYCQQYNLYPLTFGGGTKVEIK,0.26,0.000234,901000
"1275-D01 light chain paired with HC 1251-A06 (SEQ ID NO: 310) (antibody, human IgG1, V domains shown) VH: QVQLVESGGGVVQPGRSLRLSCAASGFDFSSYGMHWVRQAPDKGLEWVAVIWDDGSDRYYADSVKGRFTISRDNSKNTLYLQMNSLRAEDTAVYYCARGGTRVLGAIHGTDVWGQGTTVTVSS VL: DIQMTQSPSSLSASVGDRVTITCRASQGIGRWLAWYQQKPEKAPKSLIYGRSSLQSGVPSRFSGSGSGTDFTLTISSLQPEDFATYYCQQYNIYPLTFGGGTKVEIK",0.721,0.000475,659000
"1275-D10 light chain paired with HC 1251-A06 (SEQ ID NO: 310) (antibody, human IgG1, V domains shown) VH: QVQLVESGGGVVQPGRSLRLSCAASGFDFSSYGMHWVRQAPDKGLEWVAVIWDDGSDRYYADSVKGRFTISRDNSKNTLYLQMNSLRAEDTAVYYCARGGTRVLGAIHGTDVWGQGTTVTVSS VL: DIQMTQSPSSLSASVGDRVTITCRASQGVFSWLAWYQQKPEKAPKSLIYNATQLQSGVPSRFSGSGSGTDFTLTISSLQPEDFATYYCQQYYYYPLTFGGGTKVEIK",0.559,0.000235,420000

# Molecular target: T1, hu-CD74 antigen (R&D SYSTEMS catalog …)
# Test: as above
# Remark: another data set of the same source
Binder,Kd [nM],koff [s⁻¹],kon [M⁻¹ s⁻¹]
"1337-A04 light chain paired with VH 1251-A06 (SEQ ID NO: 236) (Fab, V domains shown, 'in Fab format') VH: QVQLVESGGGVVQPGRSLRLSCAASGFDFSSYGMHWVRQAPDKGLEWVAVIWDDGSDRYYADSVKGRFTISRDNSKNTLYLQMNSLRAEDTAVYYCARGGTRVLGAIHGTDVWGQGTTVTVSS VL: DIQMTQSPSSLSASVGDRVTITCRASQDIGRWVAWYQQKPEKAPKSLIYGASSLQSGVPSRFSGSGSGTDFTLTISSLQPEDFATYYCQQYNTYPLTFGGGTKVEIK",0.158,0.000123,775000
"1337-A05 light chain paired with VH 1251-A06 (SEQ ID NO: 236) (Fab, V domains shown, 'in Fab format') VH: QVQLVESGGGVVQPGRSLRLSCAASGFDFSSYGMHWVRQAPDKGLEWVAVIWDDGSDRYYADSVKGRFTISRDNSKNTLYLQMNSLRAEDTAVYYCARGGTRVLGAIHGTDVWGQGTTVTVSS VL: DIQMTQSPSSLSASVGDRVTITCRASQGIGRWVAWYQQKPEKAPKSLIYGADRLQSGVPSRFSGSGSGTDFTLTISSLQPEDFATYYCQQYNSYPLTFGGGTKVEIK",0.179,0.000156,869000
"1337-A06 light chain paired with VH 1251-A06 (SEQ ID NO: 236) (Fab, V domains shown, 'in Fab format') VH: QVQLVESGGGVVQPGRSLRLSCAASGFDFSSYGMHWVRQAPDKGLEWVAVIWDDGSDRYYADSVKGRFTISRDNSKNTLYLQMNSLRAEDTAVYYCARGGTRVLGAIHGTDVWGQGTTVTVSS VL: DIQMTQSPSSLSASVGDRVTITCRASQDIGSWVAWYQQKPEKAPKSLIYGADRLQSGVPSRFSGSGSGTDFTLTISSLQPEDFATYYCQQYNSYPLTFGGGTKVEIK",0.184,0.000144,785000
"1337-A07 light chain paired with VH 1251-A06 (SEQ ID NO: 236) (Fab, V domains shown, 'in Fab format') VH: QVQLVESGGGVVQPGRSLRLSCAASGFDFSSYGMHWVRQAPDKGLEWVAVIWDDGSDRYYADSVKGRFTISRDNSKNTLYLQMNSLRAEDTAVYYCARGGTRVLGAIHGTDVWGQGTTVTVSS VL: DIQMTQSPSSLSASVGDRVTITCRASQGISSWVAWYQQKPEKAPKSLIYGASRLQSGVPSRFSGSGSGTDFTLTISSLQPEDFATYYCQQYHTYPLTFGGGTKVEIK",0.18,0.000141,785000
"1337-A08 light chain paired with VH 1251-A06 (SEQ ID NO: 236) (Fab, V domains shown, 'in Fab format') VH: QVQLVESGGGVVQPGRSLRLSCAASGFDFSSYGMHWVRQAPDKGLEWVAVIWDDGSDRYYADSVKGRFTISRDNSKNTLYLQMNSLRAEDTAVYYCARGGTRVLGAIHGTDVWGQGTTVTVSS VL: DIQMTQSPSSLSASVGDRVTITCRASQDIGSWVAWYQQKPEKAPKSLIYASDSLQSGVPSRFSGSGSGTDFTLTISSLQPEDFATYYCQQYNSYPLTFGGGTKVEIK",0.178,0.000134,749000
